In US20190241648A1 (STATEN BIOTECHNOLOGY B V, published 2019):
Residue numbers refer to the chain shown, from its start.

B1: 14C7 IgG1 (antibody, V domains shown)
VH: QVQVQESGPGLVKPSQTLSLTCTVSGGSITTNSYYWSWIRQPPGKGLEWMGAIDYSGDTYYSPSLKSRTSISRDTSKNQFTLQLTSVTPEDTAVYYCVSRIPTGEYWGQGTQVTVSS
VL: QTVVTQEPSLSVSPGGTVTLTCGLNSGSVTSSNYPDWYQQTPGQAPRLLIYNTNSRHSGVPSRFSGSISGNKAALTITGAQPEDEADYYCALYMGSDSVVFGGGTHLTVL
notes: IgG1 format
B2: 6A6 IgG1 (antibody, V domains shown)
VH: EVQLVESGGGLVQPGGSLRLSCAASGFTFSSYAGRWVRQVPGKGLEWVSSINAGGGSTSYADSVKGRFTISRDNAKNTLYLQMNSLKPEDTAKYYCTQNSYRYWGQGTRVAVSS
VL: DVVLTQTPGSLSVVPGESASISCKASQSLIHTDGKTYLYWLLQKPGQRPQLLIYQVSSHESGVPDRFTGSGSGTDFTLKISGVKAEDAGVYYCAQATYNPRTFGQGTKLEIK
notes: IgG1 format
B3: 5A7 IgG1 (antibody, V domains shown)
VH: EVQVQESGPGLVKPSQTLSLTCTVSGASITNRRYAWTWIRQPPGKGLEWMGVIVYDGNTHVSPSLRSRTSISRDTSKNQFSLQLSSLTPEDTAVYYCARVLLLRDPLSLDYWGQGTQVTVSS
VL: SSALTQPPSMSGTLGKTLTISCAGTSSDIGAYNFVSWYQQLPGTAPKLLIYDIDKRASGIPDRFSGSKSGNTASLSISGLQSEDEADYYCAAYGSRDNVVFGGGTHLTVL
notes: IgG1 format
B4: 8A4 scFv-Fc (Fc fusion)
VH: QVQLVESGGGLVQPGGSLKVSCTASGFTFNNYAMRWVRQAEGKGLEWVSSIDSGGDRTKYGDSVKGRFSISRDNAKNTVYLQMDALKPEDTGVYYCVSQGYIFWGQGAQVTVSS
VL: ATMLTQSPGSLSVVPGESASISCKASQSLVHSDGKTYLYWLLQKPGQRPQLLIYQVSNHESGVPDRFTGSGSGTDYTLKISGVKAEDAGVYYCAQATYYPLTFGQGTKVELK
notes: scFv-Fc format
B5: 8F4 scFv-Fc (Fc fusion)
VH: QLQLVESGGGLVQPGGSLRLSCAASGFAFSSYSMYWVRQAPGKGLERVAAIKTDGGSTNYADSVKGRFTVSRDNAKNTLYLQMNSLKSEDTAVYYCVIQGYGTWGQGTQVTVSS
VL: DLVLTQIPGSLSVVPGESASISCKASQSLVHSDGKTYLYWLLQKPGQSPQRLIYQVSNRGSGVPDRFTGSGSGTDFTLKISGVEAEDAGVYYCAQATYYGHSFGSGTRLEIK
notes: scFv-Fc format
B6: 8H4 scFv-Fc (Fc fusion)
VH: ELQLVESGGGLVQPGRSLRLSCAASGFTFSSYSMRWVRQTPGKGLEWVTSINSDGGSTKYSDSVKGRFTISRDNAKNTLYLQMNNVKPEDTAIYYCAIQGYTDWGQGTQVTVSS
VL: B5 VL with L2V, I7T, A25V, G60D, E84K, A96G, Y99N, G100P, H101Y, S102T
notes: scFv-Fc format
B7: 10B6 scFv-Fc (Fc fusion)
VH: EVQLVESGGGLVQPGGSLRLSCAASGFTFSSYAMRWVRQAPGKGLEWISSINIDGGSTRYTDSVQGRFTVSRDNAKNTLYLQMNNLKPEDTGIYYCTIQGYIYWGQGTQVTVSS
VL: ATMLTQSPGSLSIVPGESASISCKASQSLVHSNGVIYFYWLLQKPGQSPQRLIYQVSNRDSGVPDRFTGSGSGTDFTLKISGVKAEDAGVYYCAQGTYYPHSFGSGTRLQIK
notes: scFv-Fc format
B8: 5A4 scFv-Fc (Fc fusion)
VH: QLQLVESGGGLVQPGGSLRLSCVASGFAFSHYTMYWVRQAPVRGLERVSAISGGGDRTIYTDSVKGRFTISRDNAANALYLQMNSLQPEDTAVYYCVAQGYEYWGQGTRVTVSS
VL: ATMLTQSPGSLSVVPGESASISCKAIQSLVHTDGKTYLYWFLQKPGQSPQRLIYQVSNRGSGVPDRFTGSGSGTDFTLKISGVKAEDAGVYYCAQGTYSSKTFGQGTKLEIK
notes: scFv-Fc format
B9: 5A11 scFv-Fc (Fc fusion)
VH: QVQVQESGPGLVKPSQTLSLTCTVSGVSITTRYYAWSWIRQPPGKGLEWMGVIAYDGSTYYSPSLKSRTSISRDTSKNQFSLQLTSVTPEDTAVYYCARVRLIEAPYEYDYWGQGTQVTVSS
VL: QAVVTQEPSLSVSPGGTVTLTCGLSSGSVTTRSYPGWFQQTPGQAPRSLIHSTSSRHSGIPTRFSGSISGNKAALTITGAQPEDEADYYCALDIGSYIVFGGGTHLTVL
notes: scFv-Fc format
B10: 5E5 scFv-Fc (Fc fusion)
VH: QLQLVESGGGLVQPGGSLRLSCAASGFTFGTYSMRWVRQVPRKALEWVSSISTDGGGTAYRDSVKGRFTISRDNAKNTLYLQMNNLKPEDTAIYYCVIAGYSDWGQGTQVTVSS
VL: ATMLTQSPGSLSVVPGESASISCKTSQGLVHSDGKTYFYWFLQKPGQSPQQLIYQVSNRASGVPDRFTGSGSGTDFTLKISGVKAEDAGVYYCAQGTYYPHTFGSGTRLEIK
notes: scFv-Fc format
B11: 6A6 scFv-Fc (Fc fusion)
VH: B2 VH
VL: B2 VL
notes: scFv-Fc format

Target: cynomologus monkey ApoC3 (cynoApoC3), native protein (Macaca fascicularis (cynomologus monkey), UniProt P18659 21-99)
Test: SPR (Biacore 3000), antibody IgG1 amine-coupled to a CM5 chip, native ApoC3 injected, HBS-EP pH 7.4
Protocol: The SPR experiments were carried out using a Biacore 3000 instrument (GE Healthcare). Flow cells of CM5 sensor chips were coupled with the generated IgG formatted antibodies of 14C7, 5A7, 5E5 and 6A6 (˜2000 RU) using the amine coupling chemistry. The coupling was performed using the adaptive immobilization Biacore protocol aiming 2000 RU as coating density, using 10 μg/ml antibody solutions in 10 mM sodium acetate buffer at pH 5.0. For all experiments the HBS-EP buffer at pH 7.4 was used as running and dilution buffer. 60 μl of human native ApoC3 or cynomologus monkey native ApoC3 protein preparations in the concentration range of 10 to 200 μg/ml were injected over all flow channels, followed by an off-rate wash at pH7.4 for 5 min. All injections were performed at a constant flow rate of 30 μl/min at 25° C. After the dissociation, the flow cell surfaces were regenerated by injecting 10 μl of 10 mM NaOH/1 M NaCl and 10 μl of 10 mM glycine at pH1.5. The resulting sensorgrams after blank channel subtraction were used to confirm cross-species reactivity and to evaluate affinity.

Chain of cynomologus monkey ApoC3 (cynoApoC3), native protein (P18659 21-99 limits assumed): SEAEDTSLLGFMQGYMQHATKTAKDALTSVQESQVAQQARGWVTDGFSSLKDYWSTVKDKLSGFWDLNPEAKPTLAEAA

| binding result | Binder |
| --- | --- |
| binds | B1 |
| binds | B2 |
| binds | B3 |

Target: T1, human ApoC3 (huApoC3), native protein purified from human serum (human, UniProt P02656 21-99)
T1 construct: Athens Research and Technology; randomly biotinylated in some assays; also called Apolipoprotein C3
Test: SPR Biacore, huApoC3 on chip, IgG1 as analyte

T1 sequence (P02656 21-99): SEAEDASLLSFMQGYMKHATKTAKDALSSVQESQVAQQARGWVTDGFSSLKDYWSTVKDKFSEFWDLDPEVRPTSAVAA

| Ka | Kd | koff | kon | Binder |
| --- | --- | --- | --- | --- |
| 1.46e+09 M⁻¹ | 0.684 nM | 5.61e-05 s⁻¹ | 82000 M⁻¹ s⁻¹ | B1 |

Target: T1, human ApoC3 (huApoC3), native protein …
Test: SPR Biacore, huApoC3 on chip, scFv-Fc as analyte
Protocol: This example describes characterization of anti-ApoC3 antibodies regarding their affinity to ApoC3 under neutral conditions using an SPR-based assay using a Biacore 3000 instrument (Biacore AB). Native huApoC3 protein was immobilized on a CM5 chip. The immobilization was performed in accordance with the method provided by Biacore using the NHS/EDC kit (Biacore AB): after activation of the chip, a solution of 60 μg/ml of human ApoC3 in 10 mM acetate buffer with pH of 4.5 was prepared and injected until the surface density reached approximately 1000 RU. Capturing of the human ApoC3 on the streptavidin coated chip (SA) was performed at pH 7.4 in accordance with a method provided by Biacore via injection of 20 μl 10 μg/ml biotinylated human ApoC3 thereby reaching the surface density of approximately 500 RU. […] After the dissociation, the flow cell surfaces were regenerated by injecting 10 μl of 10 mM […]/1 M NaCl and 10 μl of 10 mM glycine at pH1.5. The resulting sensorgrams were analyzed using the BIAevaluation 4.1 software using Langmuir 1:1 binding model to derive binding kinetics. Data was zero adjusted and the reference cell sensorgrams were subtracted.
A number of scFv-Fc antibodies were examined in this assay. The association rate (ka), dissociation rate (kd), analyte binding capacity (Rmax), equilibrium association constant (KA) and equilibrium dissociation constant (KD) of these antibodies are shown in Table 5.

| Ka | Kd | koff | kon | Binder |
| --- | --- | --- | --- | --- |
| 4.27e+09 M⁻¹ | 0.234 nM | 7.02e-05 s⁻¹ | 300000 M⁻¹ s⁻¹ | B4 |
| 1.72e+09 M⁻¹ | 0.581 nM | 9.44e-05 s⁻¹ | 163000 M⁻¹ s⁻¹ | B5 |
| 2.52e+09 M⁻¹ | 0.397 nM | 7.44e-05 s⁻¹ | 187000 M⁻¹ s⁻¹ | B6 |
| 2.58e+09 M⁻¹ | 0.388 nM | 6.64e-05 s⁻¹ | 171000 M⁻¹ s⁻¹ | B7 |
| 3.02e+09 M⁻¹ | 0.331 nM | 0.000351 s⁻¹ | 1.06e+06 M⁻¹ s⁻¹ | B8 |
| 2.15e+09 M⁻¹ | 0.465 nM | 0.000668 s⁻¹ | 1.44e+06 M⁻¹ s⁻¹ | B9 |
| 5.94e+08 M⁻¹ | 1.68 nM | 0.000437 s⁻¹ | 260000 M⁻¹ s⁻¹ | B10 |
| 6.41e+09 M⁻¹ | 0.156 nM | 0.000186 s⁻¹ | 1.19e+06 M⁻¹ s⁻¹ | B11 |

Target: T1, human ApoC3 (huApoC3), native protein …
Test: cell-based or functional assay

| EC50, attenuation of ApoC3-mediated LPL inhibition (NEFA production) | attenuation of the ability of ApoC3 to inhibit VLDL uptake by HepG2 cells | Binder |
| --- | --- | --- |
| ~2000 nM |  | B1 |
|  | ~40% | B4 |
|  | ~75% | B5 |
|  | ~70% | B6 |
|  | ~70% | B7 |
| > 5000 nM |  | B2 |
|  | ~100% | B8 |
|  | ~55% | B9 |
|  | ~100% | B10 |
|  | ~75% | B11 |
